Measurements published in PMC12633535 (bioRxiv, 2025).

T1: GST-ICAT (a.a. Met1-Gln81) (UniProt Q9NSA3 1-81)
T1 sequence (looked up): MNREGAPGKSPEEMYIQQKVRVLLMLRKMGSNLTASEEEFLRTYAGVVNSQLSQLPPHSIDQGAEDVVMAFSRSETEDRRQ

T2: GST-tagged TCF4 fragment (a.a. 1–53) (UniProt Q9NQB0 1-53)
T2 sequence (looked up): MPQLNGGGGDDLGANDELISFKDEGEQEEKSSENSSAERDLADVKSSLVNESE

B1: full-length β-catenin, untagged, wild type (natural protein, human, UniProt P35222 1-781, looked up)
chain: MATQADLMELDMAMEPDRKAAVSHWQQQSYLDSGIHSGATTTAPSLSGKGNPEEEDVDTSQVLYEWEQGFSQSFTQEQVADIDGQYAMTRAQRVRAAMFPETLDEGMQIPSTQFDAAHPTNVQRLAEPSQMLKHAVVNLINYQDDAELATRAIPELTKLLNDEDQVVVNKAAVMVHQLSKKEASRHAIMRSPQMVSAIVRTMQNTNDVETARCTAGTLHNLSHHREGLLAIFKSGGIPALVKMLGSPVDSVLFYAITTLHNLLLHQEGAKMAVRLAGGLQKMVALLNKTNVKFLAITTDCLQILAYGNQESKLIILASGGPQALVNIMRTYTYEKLLWTTSRVLKVLSVCSSNKPAIVEAGGMQALGLHLTDPSQRLVQNCLWTLRNLSDAATKQEGMEGLLGTLVQLLGSDDINVVTCAAGILSNLTCNNYKNKMMVCQVGGIEALVRTVLRAGDREDITEPAICALRHLTSRHQEAEMAQNAVRLHYGLPVVVKLLHPPSHWPLIKATVGLIRNLALCPANHAPLREQGAIPRLVQLLVRAHQDTQRRTSMGGTQQQFVEGVRMEEIVEGCTGALHILARDVHNRIVIRGLNTIPLFVQLLYSPIENIQRVAAGVLCELAQDKEAAEAIEAEGATAPLTELLHSRNEGVATYAAAVLFRMSEDKPQDYKKRLSVELTSSLFRTEPMAWNETADLGLDIGAQGEPLGYRQDDPSYRSFHSGGYGQDALGMDPMMEHEMGGHHPGADYPVDGLPDLGHAQDLMDGLPPGDSNQLAWFDTDL
B2: GST-tagged AXIN1 CBD peptide V475I/L479W (a.a. 435-498) (domain or fragment, human, UniProt O15169-1 435-498, looked up)
chain: CHKLPPAPAWHHFPPRCVDMGCAGLRDAHEENPESILDEHIQRVWRTPGRQSPGPGHRSPDSGH

Assays:
Test in all cases: BLI
[1] = target: B2
[2] = target: T1, GST-ICAT (a.a. Met1-Gln81)
[3] = target: T2, GST-tagged TCF4 fragment (a.a. 1–53)
[4] = target: B1

Row | fold reduction of affinity against wild-type β-catenin [3] | Kd [4] | Binder | other results
1 | – | – | B1 | fold decrease of koff against the wild-type CBD peptide [1]: ~20 fold; half-life of the complex [1]: ~1 min
2 | ~10 fold | – | β-catenin D624K/E626K/E628K (purified, full length, untagged) (natural protein) MATQADLMELDMAMEPDRKAAVSHWQQQSYLDSGIHSGATTTAPSLSGKGNPEEEDVDTSQVLYEWEQGFSQSFTQEQVADIDGQYAMTRAQRVRAAMFPETLDEGMQIPSTQFDAAHPTNVQRLAEPSQMLKHAVVNLINYQDDAELATRAIPELTKLLNDEDQVVVNKAAVMVHQLSKKEASRHAIMRSPQMVSAIVRTMQNTNDVETARCTAGTLHNLSHHREGLLAIFKSGGIPALVKMLGSPVDSVLFYAITTLHNLLLHQEGAKMAVRLAGGLQKMVALLNKTNVKFLAITTDCLQILAYGNQESKLIILASGGPQALVNIMRTYTYEKLLWTTSRVLKVLSVCSSNKPAIVEAGGMQALGLHLTDPSQRLVQNCLWTLRNLSDAATKQEGMEGLLGTLVQLLGSDDINVVTCAAGILSNLTCNNYKNKMMVCQVGGIEALVRTVLRAGDREDITEPAICALRHLTSRHQEAEMAQNAVRLHYGLPVVVKLLHPPSHWPLIKATVGLIRNLALCPANHAPLREQGAIPRLVQLLVRAHQDTQRRTSMGGTQQQFVEGVRMEEIVEGCTGALHILARDVHNRIVIRGLNTIPLFVQLLYSPIENIQRVAAGVLCELAQKKKAAKAIEAEGATAPLTELLHSRNEGVATYAAAVLFRMSEDKPQDYKKRLSVELTSSLFRTEPMAWNETADLGLDIGAQGEPLGYRQDDPSYRSFHSGGYGQDALGMDPMMEHEMGGHHPGADYPVDGLPDLGHAQDLMDGLPPGDSNQLAWFDTDL | fold reduction of affinity against wild-type β-catenin [2]: ~10 fold
3 | > 10 fold | – | full-length β-catenin C466Y/A467T, untagged (natural protein, human, UniProt P35222 1-781, looked up) MATQADLMELDMAMEPDRKAAVSHWQQQSYLDSGIHSGATTTAPSLSGKGNPEEEDVDTSQVLYEWEQGFSQSFTQEQVADIDGQYAMTRAQRVRAAMFPETLDEGMQIPSTQFDAAHPTNVQRLAEPSQMLKHAVVNLINYQDDAELATRAIPELTKLLNDEDQVVVNKAAVMVHQLSKKEASRHAIMRSPQMVSAIVRTMQNTNDVETARCTAGTLHNLSHHREGLLAIFKSGGIPALVKMLGSPVDSVLFYAITTLHNLLLHQEGAKMAVRLAGGLQKMVALLNKTNVKFLAITTDCLQILAYGNQESKLIILASGGPQALVNIMRTYTYEKLLWTTSRVLKVLSVCSSNKPAIVEAGGMQALGLHLTDPSQRLVQNCLWTLRNLSDAATKQEGMEGLLGTLVQLLGSDDINVVTCAAGILSNLTCNNYKNKMMVCQVGGIEALVRTVLRAGDREDITEPAIYTLRHLTSRHQEAEMAQNAVRLHYGLPVVVKLLHPPSHWPLIKATVGLIRNLALCPANHAPLREQGAIPRLVQLLVRAHQDTQRRTSMGGTQQQFVEGVRMEEIVEGCTGALHILARDVHNRIVIRGLNTIPLFVQLLYSPIENIQRVAAGVLCELAQDKEAAEAIEAEGATAPLTELLHSRNEGVATYAAAVLFRMSEDKPQDYKKRLSVELTSSLFRTEPMAWNETADLGLDIGAQGEPLGYRQDDPSYRSFHSGGYGQDALGMDPMMEHEMGGHHPGADYPVDGLPDLGHAQDLMDGLPPGDSNQLAWFDTDL | –
4 | – | 40 nM | B2 | –
5 | – | 1000 nM | GST-tagged AXIN1 CBD peptide, wild type (a.a. Cys435-His498) (domain or fragment, human, UniProt O15169-1 435-498, looked up) CHKLPPAPAWHHFPPRCVDMGCAGLRDAHEENPESILDEHVQRVLRTPGRQSPGPGHRSPDSGH | –
6 | – | ~450 nM | GST-tagged AXIN1 CBD peptide V475I (a.a. 435-498) (domain or fragment, human, UniProt O15169-1 435-498, looked up) CHKLPPAPAWHHFPPRCVDMGCAGLRDAHEENPESILDEHIQRVLRTPGRQSPGPGHRSPDSGH | –
7 | > 10 fold | – | full-length β-catenin R469H, untagged (natural protein, human, UniProt P35222 1-781, looked up) MATQADLMELDMAMEPDRKAAVSHWQQQSYLDSGIHSGATTTAPSLSGKGNPEEEDVDTSQVLYEWEQGFSQSFTQEQVADIDGQYAMTRAQRVRAAMFPETLDEGMQIPSTQFDAAHPTNVQRLAEPSQMLKHAVVNLINYQDDAELATRAIPELTKLLNDEDQVVVNKAAVMVHQLSKKEASRHAIMRSPQMVSAIVRTMQNTNDVETARCTAGTLHNLSHHREGLLAIFKSGGIPALVKMLGSPVDSVLFYAITTLHNLLLHQEGAKMAVRLAGGLQKMVALLNKTNVKFLAITTDCLQILAYGNQESKLIILASGGPQALVNIMRTYTYEKLLWTTSRVLKVLSVCSSNKPAIVEAGGMQALGLHLTDPSQRLVQNCLWTLRNLSDAATKQEGMEGLLGTLVQLLGSDDINVVTCAAGILSNLTCNNYKNKMMVCQVGGIEALVRTVLRAGDREDITEPAICALHHLTSRHQEAEMAQNAVRLHYGLPVVVKLLHPPSHWPLIKATVGLIRNLALCPANHAPLREQGAIPRLVQLLVRAHQDTQRRTSMGGTQQQFVEGVRMEEIVEGCTGALHILARDVHNRIVIRGLNTIPLFVQLLYSPIENIQRVAAGVLCELAQDKEAAEAIEAEGATAPLTELLHSRNEGVATYAAAVLFRMSEDKPQDYKKRLSVELTSSLFRTEPMAWNETADLGLDIGAQGEPLGYRQDDPSYRSFHSGGYGQDALGMDPMMEHEMGGHHPGADYPVDGLPDLGHAQDLMDGLPPGDSNQLAWFDTDL | –
8 | ~7 fold | – | purified β-catenin E571K (full length, untagged) (natural protein, human, UniProt P35222 1-781, looked up) MATQADLMELDMAMEPDRKAAVSHWQQQSYLDSGIHSGATTTAPSLSGKGNPEEEDVDTSQVLYEWEQGFSQSFTQEQVADIDGQYAMTRAQRVRAAMFPETLDEGMQIPSTQFDAAHPTNVQRLAEPSQMLKHAVVNLINYQDDAELATRAIPELTKLLNDEDQVVVNKAAVMVHQLSKKEASRHAIMRSPQMVSAIVRTMQNTNDVETARCTAGTLHNLSHHREGLLAIFKSGGIPALVKMLGSPVDSVLFYAITTLHNLLLHQEGAKMAVRLAGGLQKMVALLNKTNVKFLAITTDCLQILAYGNQESKLIILASGGPQALVNIMRTYTYEKLLWTTSRVLKVLSVCSSNKPAIVEAGGMQALGLHLTDPSQRLVQNCLWTLRNLSDAATKQEGMEGLLGTLVQLLGSDDINVVTCAAGILSNLTCNNYKNKMMVCQVGGIEALVRTVLRAGDREDITEPAICALRHLTSRHQEAEMAQNAVRLHYGLPVVVKLLHPPSHWPLIKATVGLIRNLALCPANHAPLREQGAIPRLVQLLVRAHQDTQRRTSMGGTQQQFVEGVRMEEIVKGCTGALHILARDVHNRIVIRGLNTIPLFVQLLYSPIENIQRVAAGVLCELAQDKEAAEAIEAEGATAPLTELLHSRNEGVATYAAAVLFRMSEDKPQDYKKRLSVELTSSLFRTEPMAWNETADLGLDIGAQGEPLGYRQDDPSYRSFHSGGYGQDALGMDPMMEHEMGGHHPGADYPVDGLPDLGHAQDLMDGLPPGDSNQLAWFDTDL | –
